From the supplement of paper PMC9170038 come the findings set out here.

The subject of the data set is MS2 coat protein. As to the kind of experiment: apparent KD of MS2 coat protein; designed switch direction (-1 OFF switch, 1 ON switch): -1; higher = weaker reporter binding. The method, boiled down:
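For each design, the apparent KD is the median over clusters of curves fitted to normalised cluster fluorescence. Clusters held RNA switches with common flanks, transcribed on Illumina chips by stalled E. coli RNA polymerase. These were titrated with SNAP-549-labelled MS2 coat protein, doubling from 0.7 or 1.5 nM to 3 µM, without input, with 200 uM small-molecule ligand, or with an oligonucleotide input.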

The mark [1] stands for this setting: Eterna round: R95, input ligand: FMN 200 uM.
[2] abbreviates: Eterna round: R95, input ligand: microRNA oligo, concentration not stated.
Where [3] appears, read: Eterna round: R95, input ligand: none.
The mark [4] stands for this setting: input ligand: microRNA oligo, concentration not stated.

For the sequence “UUUAAUUUUUUUUUUUUACAAGCUUUUUGCUCGUCUUAUACAUGAGGAUCACCCAUGUGAGUGGGAGAUAAAUUAUC [JMF 22] (puzzle: Sensor v3, turn-off variant 2)”, the “apparent KD of MS2 coat protein” value under setting [1] came to 98.2 nM, the “apparent KD of MS2 coat protein” value under setting [2] came out at 213 nM and the “apparent KD of MS2 coat protein” value under setting [3] worked out at 170 nM.

“UUUAAUUUUUUUUUUUUACAAGCUUUUUGCUCGUCUUAUACAUGAGGAUCACCCAUGUGGGUAAAAGGUAAAUUAUC [JMF 63] (puzzle: Sensor v3, turn-off variant 2)”: the “apparent KD of MS2 coat protein” value by setting is: under setting [1], 15.3 nM; under setting [2], 32.8 nM; under setting [3], 17.3 nM. On to “UUUAAUUUUUUUUUUUUACAAGCUUUUUGCUCGUCUUAUACAUGAGGAUCACCCAUGUGGGUGGAAGAUAAAUUAUC [JMF 12] (puzzle: Sensor v3, turn-off variant 2)”, for which the “apparent KD of MS2 coat protein” value is, setting by setting: under setting [1], 113 nM; under setting [2], 75.1 nM; under setting [3], 134 nM. As for “UUUAGUUCAGGAUAUGUAGAUAUUAACAUGAGGAUCACCCAUGUCGAUCCUGAAUUAACUACAGAAGGGAACAUUU [Mod of Brourd 5 - Jieux - Exclusion 5] (Eterna round: R97, puzzle: Exclusion 5)”, the “apparent KD of MS2 coat protein” value was found to be 69.6 nM (input ligand: FMN 200 uM) and 17.8 nM (input ligand: none). On to “UUUAGUUCAGGAUAUGUAGAUUUUAACAUGAGGAUCACCCAUGUGGAUCCUGAAUUAACUACAGAAGGGAACAUUU [Mod of Brourd 3 - Jieux - Exclusion 5] (Eterna round: R97, puzzle: Exclusion 5)”, for which the “apparent KD of MS2 coat protein” value came out at 294 nM (input ligand: FMN 200 uM) and 43 nM (input ligand: none). Turning to “UUUAUAUAUGAAGGAUAUACUUAACAUGAGGAUCACCCAUGUGGUGUUGUGAGUGAGUGAGUUUAGUAGAAGGUCAAUUCUUUU [JMF's solution 91] (Eterna round: R96, puzzle: Exclusion NG 2)”, the “apparent KD of MS2 coat protein” value (input ligand: FMN 200 uM) is 731 nM, the “apparent KD of MS2 coat protein” value under setting [4] worked out at 335 nM and the “apparent KD of MS2 coat protein” value (input ligand: none) was determined as 362 nM.

With “UUUAUGUCAGGAUAUACAUGAGGAUCACCCAUGUAUAUCUAAAAAUAUACAUGGGUAUGUAGAAGGGACCUCCU [Omei Ex3 Pseudoloop 2] (Eterna round: R97, puzzle: Exclusion 3)”, the “apparent KD of MS2 coat protein” value turned out to be 52.6 nM (input ligand: FMN 200 uM) and 146 nM (input ligand: none). Consider “UUUAUGUCAGGAUAUGAGUAGUAGAACAAUAGUACUACUACUCAGAAGGGACAUGAGGAUCACCCAUGUUCCUC [Fiskers Ex 4 Super stable 44 mod 20] (puzzle: Exclusion 4)”, for which the “apparent KD of MS2 coat protein” value under setting [2] was found to be 16.7 nM.

Regarding “UUUAUGUCAGGAUAUGAGUAGUAGAACAAUAGUACUACUACUCAGAAGGGACAUGAGGAUCACCCAUGUUCUUC [Fiskers Ex 4 Super stable 44 mod 23] (puzzle: Exclusion 4)”, the “apparent KD of MS2 coat protein” value under setting [2] came to 16.3 nM. As to “UUUAUGUCAGGAUAUGAGUAGUAGAACAAUAGUACUACUACUCAGAAGGGACAUGAGGAUCACCCAUGUUUCUC [Fiskers Ex 4 Super stable 44 mod 24] (puzzle: Exclusion 4)”, the “apparent KD of MS2 coat protein” value under setting [2] is 22.6 nM. Consider “UUUAUGUCAGGAUAUGAUUAGAUCUACUUCGGUAGAUCUAAUCAGAAGGGACAUGAGGAUCACCCAUGUAGUUU [Ex4 - 3 - 13] (Eterna round: R96, puzzle: Exclusion 4)”, for which the “apparent KD of MS2 coat protein” value (input ligand: FMN 200 uM) was determined as 671 nM, the “apparent KD of MS2 coat protein” value under setting [4] stood at 137 nM and the “apparent KD of MS2 coat protein” value (input ligand: none) is 180 nM. Take “UUUAUGUCAGGAUAUGAUUAGAUCUACUUCGGUAGAUCUAAUCAGAAGGGACAUGAGGAUCACCCAUGUAGUUU [Ex4 - 3 - 13] (puzzle: Exclusion 4)”: the “apparent KD of MS2 coat protein” value under setting [2] came to 119 nM. For the sequence “UUUAUUUUGCAAGGAUAUGUUUAAUUUUAGUUUCCUUAAACAUGAGGAUCACCCAUGUUAUACUUACAGAAGGUGCAUAAUUUU [JR_ExcNG2_Sub036] (Eterna round: R96, puzzle: Exclusion NG 2)”, the “apparent KD of MS2 coat protein” value under setting [4] came to 73.3 nM.

For “UUUCGGCAUGUAGGAUAUGGAUCCGAUUAGGAUUUAGAAGGACAUGAGGAUCACCCAUGUGCAUUUAAUUGGUCAUUACCGUUU [EXclNG1-LROPPY08] (Eterna round: R96, puzzle: Exclusion NG 1)”, the “apparent KD of MS2 coat protein” value under setting [4] was 41.9 nM.

As to “UUUCGGCAUGUAGGAUAUGGGUCCGAUUAGGAUUUAGAAGGACAUGAGGAUCACCCAUGUGCAUUUAAUUGGUCAUUACCGUUU [EXclNG1-LROPPY09] (Eterna round: R96, puzzle: Exclusion NG 1)”, the “apparent KD of MS2 coat protein” value runs as follows: (input ligand: FMN 200 uM) 86.7 nM; under setting [4], 47.8 nM; (input ligand: none) 66 nM.

As to “UUUGAAUAAGUGAGGAUAUACUGUUAGUAAUGAUUGUAGAAGGUACAUGAGGAUCACCCAUGUUUAUUAUUUAU [JR_BME4_Sub039] (puzzle: Brourd's mod of Exclusion 4)”, the “apparent KD of MS2 coat protein” value under setting [2] is 20.7 nM. Take “UUUGACUAAGGAUAUCCUUUUGACCACAUGAGGAUCACCCAUGUAUUCCACAAGUGCGAAGGAGAAGGUGGGAAGG [Eternabot (L2) Solution 28] (Eterna round: R97, puzzle: Exclusion 5)”: the “apparent KD of MS2 coat protein” value reads like this: (input ligand: FMN 200 uM) 65.6 nM; (input ligand: none) 56.1 nM. Take “UUUGCAAGCUAUAGAUCCCACAUGAGGAUCACCCAUGUUGCUGCCGUGAGGUAGCAUUUAACUAUUGCUCGUCUUAU [JL TOV1 3.51] (Eterna round: R97, puzzle: Sensor, turn-off variant 1)”: the “apparent KD of MS2 coat protein” value was found to be 190 nM (input ligand: FMN 200 uM) and 245 nM (input ligand: none). On the same counts, the results for “UUUGCAAGCUUAUGAUCCCACAUGAGGAUCACCCAUGUUGCUGCCGGUGACGGUAGCAUAACAUAUGCUCGUCUUAU [JL TOV1 3.63] (Eterna round: R97, puzzle: Sensor, turn-off variant 1)” are 791 nM and 1170 nM. For the sequence “UUUGUUUAUGUGAGGAUAUACUGUUUGUUUUGUUUGUAGAAGGUACAUGAGGAUCACCCAUGUUUUGUUUUUUU [JR_BME4_Sub033] (puzzle: Brourd's mod of Exclusion 4)”, the “apparent KD of MS2 coat protein” value under setting [2] stood at 21 nM.

As to “UUUGUUUUGCAAGGAUAUGUUUAAUUUUAUUUUCCUUACACAUGAGGAUCACCCAUGUUAUACUUACAGAAGGUGCGUAAUUUG [Excl-NG2-LRO04] (Eterna round: R96, puzzle: Exclusion NG 2)”, the “apparent KD of MS2 coat protein” value under setting [4] was found to be 165 nM. For “UUUUAACAUGAGGAUCACCCAUGUGAGGAUAUCGAAAUUUAUAUUAAUAUUAAUUAUACGAGAAGGCACAUUUU [JMF 30] (puzzle: Exclusion 1)”, the “apparent KD of MS2 coat protein” value under setting [2] amounted to 84 nM. Still for that read-out and setting: the value for “UUUUAACAUGAGGAUCACCCAUGUGAGGAUAUCGAAAUUUAUAUUUAUAUUAAUAAUACGAGAAGGCACAUUUU [JMF 78] (puzzle: Exclusion 1)” was 57 nM; that for “UUUUAACAUGAGGAUCACCCAUGUGAGGAUAUCGAAAUUUAUAUUUAUAUUUAUAUAUCGAGAAGGCACAUUUU [JMF 96] (puzzle: Exclusion 1)” was 118 nM; that for “UUUUAGAGAGGAUAUACAUUUUUUUAUUUAUUUAUAAUAUUACAUGAGGAUCACCCAUGUAGAAGGCUCAUUUU [My Design] (puzzle: Exclusion 2)” was 25.8 nM.

As for “UUUUAGUCAGGAUAUACAUGAGGAUCACCCAUGUAAAAUUUUAAUUUAAUUUUAAGGUGUAGAAGGGACAAUCC [Ex3 #12] (Eterna round: R97, puzzle: Exclusion 3)”, the “apparent KD of MS2 coat protein” value (input ligand: FMN 200 uM) came to 43.1 nM and the “apparent KD of MS2 coat protein” value (input ligand: none) is 38.9 nM. Take “UUUUAGUGAGGAUAUACAUUUUUUUAAUUAUUUAUAAUAUUACAUGAGGAUCACCCAUGUAGAAGGCACAUUUU [My Design] (puzzle: Exclusion 2)”: under setting [2], the “apparent KD of MS2 coat protein” value stood at 27.4 nM. Take “UUUUCAUAUGAAGGAUAUACUUAACAUGAGGAUCACCCAUGUGGUGUUGUGAGUGAGUGAGUUUAGUAGAAGGUCAAUUCUUUU [JMF's solution 90] (Eterna round: R96, puzzle: Exclusion NG 2)”: the “apparent KD of MS2 coat protein” value is 613 nM (input ligand: FMN 200 uM), 277 nM under setting [4] and 351 nM (input ligand: none). As for “UUUUGACAAGCGAGAUCCUACAUGAGGAUCACCCAUGUUGACCAUGGUUUCCAUGGUCUUUUUGCUCGUCUUGUGUG [jl TITIN mod 4] (Eterna round: R97, puzzle: Sensor, turn-off variant 1)”, the “apparent KD of MS2 coat protein” value (input ligand: FMN 200 uM) was found to be 21.5 nM and the “apparent KD of MS2 coat protein” value (input ligand: none) is 21.8 nM. Turning to “UUUUGUCGUGACAUGGGUGACAUGAGGAUCACCCAUGUUACAAGCUUGUUGCUCGUCUUAUAAUUAACCCAUGUCAC [LRO Sensor-off var1-17 mod of Stov1-13-A1 by Brourd] (Eterna round: R97, puzzle: Sensor, turn-off variant 1)”, the “apparent KD of MS2 coat protein” value (input ligand: FMN 200 uM) is 17.6 nM and the “apparent KD of MS2 coat protein” value (input ligand: none) came out at 16.1 nM. “UUUUUAUAUGAAGGAUAUACUUAACAUGAGGAUCACCCAUGUGGUGUUGUGAGUGAGUGAGUUUAGUAGAAGGUCAAAUAUUUU [JMF's solution 7] (Eterna round: R96, puzzle: Exclusion NG 2)”: the “apparent KD of MS2 coat protein” value (input ligand: FMN 200 uM) came to 583 nM, the “apparent KD of MS2 coat protein” value under setting [4] stood at 194 nM and the “apparent KD of MS2 coat protein” value (input ligand: none) came to 270 nM. Take “UUUUUCGAACAAGCAUCGAACAUGAGGAUCACCCAUGUAGGUAGAUUUGAGUAGGUAUGGAAGUAAGCUCGUCUUAU [JR_SV3TOV1_Sub080] (puzzle: Sensor v3, turn-off variant 1)”: the “apparent KD of MS2 coat protein” value under setting [1] turned out to be 39.4 nM, the “apparent KD of MS2 coat protein” value under setting [2] is 107 nM and the “apparent KD of MS2 coat protein” value under setting [3] was 53.9 nM. Regarding “UUUUUCGAACAAGCUACGUACAUGAGGAUCACCCAUGUCGGUAGAUUUGAGUAGGUUUGGAUGGAAGCUCGUCUUAU [JR_SV3TOV1_Sub085] (puzzle: Sensor v3, turn-off variant 1)”, the “apparent KD of MS2 coat protein” value by setting is: under setting [1], 19.4 nM; under setting [2], 28.2 nM; under setting [3], 19.5 nM.
